For test [1], the system named is CyPPO17. Briefly: PPO enzyme activity of MBP-fused CyPPO17 wild type and variants. In kind it is biochemical, Thermosynechococcus sp. NK55a. As to conditions: PPO enzyme activity relative to wild type; MBP-fused protein, 50 μM protoporphyrinogen IX, room temperature, 30 min. On the procedure:
Thus, PPO proteins of wild type and variants were expressed as fused to MBP and were used for experiments.
The following process for purification of PPO protein was performed in a 4° C. cold room. Amylose resin (NEB) was packed to 1.5×15 cm column (Bio-Rad, Econo Columns 1.5×15 cm, glass chromatography column, max. vol), and the obtained protein extracts were loaded to the column at a flow rate of 0.2 ml/min. The column was washed with 3 column volumes of buffer and the presence of protein in the washing solution was examined. When the protein was no longer detected, the washing procedure was terminated. Then, the MBP-PPO protein was eluted with approximately 2 column volumes of buffer containing 20 mM maltose. The protein concentration of each eluent was determined and the elution was stopped when the protein was no longer detected. Ten microliter of each fraction was investigated for protein quantification and SDS-PAGE analysis. The highly pure fractions of PPO protein variants were used for the enzyme assay.
Since protoporphyrinogen IX, a substrate of PPO protein, was not commercially available, it was chemically synthesized in the laboratory. Overall process was performed in dark under nitrogen stream. […] of protoporphyrin IX was dissolved in 20 ml of 20% (v/v) EtOH, and stirred under dark condition for 30 minutes. The obtained protoporphyrin IX solution was put into a 15 ml screw tube in an amount of 800 μl, and flushed with nitrogen gas for 5 minutes. To this, 1.5 g of sodium amalgam was added and vigorously shaken for 2 minutes. The lid was opened to exhaust hydrogen gas in the tube. Thereafter, the lid was closed and incubated for 3 minutes. The protoporphyrinogen IX solution was filtered using syringe and cellulose membrane filter. […] To determine the enzyme activity of PPO protein, a reaction mixture was prepared with the following composition (based on 10 ml): 50 mM Tris-Cl (pH 8.0); 50 mM NaCl; 0.04% (v/v) Tween 20; 40 mM glucose (0.072 g); 5 units glucose oxidase (16.6 mg); and 10 units catalase (1 μl).
Hundred and eighty microliters of a reaction mixture containing the purified PPO protein were placed in 96 well plates and 20 μl of […] were added. […] The reaction proceeded at room temperature for 30 min and the fluorescence of protoporphyrin IX was measured using Microplate reader (Sense, Hidex) (excitation: 405 nm; emission: 633 nm). […] To this, 2.7 N HCl was added, and the absorbance at 408 nm was measured. A standard curve was generated using standard protoporphyrin IX, and PPO activity was measured by calibration of protoporphyrin IX using the standard curve of protoporphyrin IX.
Activities of variants were presented relatively compared to that of wild type.

Test [2] has as its system CyPPO17. As to the kind of experiment: Herbicide tolerance test of CyPPO17 wild type and variants in PPO-deficient E. coli BT3(ΔPPO). In kind it is cell-based, Thermosynechococcus sp. NK55a. As to conditions: BT3(ΔPPO) transformants; for Herbicide tolerance, tiafenacil: 37° C., 16 to 20 hours. The procedure: The mutated CyPPO gene obtained from the Example 2 was transformed to BT3 (ΔPPO) strain which is deficient of PPO activity and cultured in LB media with PPO-inhibiting herbicide, thereby examining whether growth of transformed BT3 was not inhibited.
BT3 competent cells were transformed with the pET303-CyPPO16 and pET303-CyPPO17 plasmids and those with a mutation(s) constructed in Example 2 respectively, and were cultured in LB agar media containing carbenicillin (Gold Biotechnology, Co., Ltd.).
Single colony of E. coli transformed with each CyPPO gene was cultured in 3 ml of LB broth containing carbenicillin overnight, and then was subcultured until absorbance (0D600) reached 0.5 to 1. Then, it was diluted with LB broth to OD600=0.5. Again, the diluted solution was serially diluted 4 times by a factor of one tenth.
The LB agar media (LB 25 g/l, Bacto agar 15 g/l) containing carbenicillin (100 μg/ml) and 0 to 4,000 μM of various herbicides dissolved in DMSO was prepared. Next, 10 μl of each diluted solution was dropped on the plate and cultured at 37° C. under light (Tables 7 and 9, FIGS. 2 to 6, and 18 to 22) or dark (Tables 8 and 10, FIGS. 7 to 17, and 23 to 33) for 16 to 20 hours. Then, extent of tolerance was evaluated.
The extent of herbicide tolerance of the mutated genes was evaluated by comparing that of mutated genes with that of wild type. The relative tolerance was represented with “+” as a factor of 10 times. Evaluation result was listed in Tables 7 to10 and FIGS. 2 to 33:
In Tables 7 to 10, tolerance level was presented as of tolerance of wild type and of variants equivalent to that of wild type, and was done as ‘+’ per each 10 fold resistance until ‘+++++’ as maximal resistance. (Tolerance level was evaluated by relative growth level of variants to that of wild type in the media containing highest concentration of herbicide; ‘+’=1-9 fold higher tolerance, ‘++’=10-99 fold higher tolerance, ‘+++’=100-999 fold higher tolerance, ‘++++’=1,000-9,999 fold higher tolerance, ‘+++++’=more than 10,000 fold higher tolerance)
The concentrations of herbicides were written above the photographs of tolerance test. A dilution series (0D600=0.5, 0.05, 0.005, 0.0005, 0.00005) was made and spotted on LB agar plates supplemented with herbicides.

The mark [3] stands for this setting: one amino acid mutation, light, relative to wild type at highest concentration (50, 100 μM).
The mark [4] stands for this setting: one amino acid mutation, light, relative to wild type at highest concentration (5, 25 μM).

Changes are numbered by the printed parent chain. Numbers in names are those of the source.

The source of these data is US11219221B2 (FarmHannong Co., Ltd., priority 2017, dated 2022).

B1: F359V: CyPPO17 variant (protein)
chain: MEVDVAIVGGGLSGLSVAWRLQQSAPQYSGVLLEASDRLGGNITTQGAEGFVWELGPNSFAPTPALLQLIAEVGLHSELIRGDRHLPRYIYWRGELYPLEPTRPLALATSNLLSPWGKVRAALGALGFVPPYLGSGDESVNSFFRRHLGQEVAERLVAPFVSGVYAGDPQQLSAAAAFRRIAQLEKLGGGLIAGALRLRRQQPPKPRPPAEVQMRPGELGSFKEGLAALPRAIAQQLKAPVHLQTPVEAITPEPNGGYLLRSGEQTWQARSVVLATPAYQTAALVAPFQPAIARVLAAIPYPTVACVVLAYPAGLGRSVRPGFGVLIPRGQGIRTLGTIWSSCLFPQRTPAGWQVFTSVIGGATDPDLASLREEAIVQQVQQDLTRLLDLPAAKARLLGMKVWRRAIPQYLVGYPQQWQQVTHALSQTPGLFLCSNYAEGVALGDRVEHGNRTAAAVAAYLSGGQS
modifications: Synthetic (Protoporphyrinogen IX oxidase (CyPPO17) of Thermosynechococcus sp. NK55a)
notes: CyPPO17 variant
For B1, the “Activity (%)” value in test [1] came out at 84%. Moreover, in test [2] (setting [3]), the “Herbicide tolerance, tiafenacil” value was “++ (‘++’=10-99 fold higher tolerance)” and the “Herbicide tolerance, flumioxazin” value is reported as “++ (‘++’=10-99 fold higher tolerance)”. Further, in test [2] (one amino acid mutation, light, relative to wild type at highest concentration (5, 10 μM)), the “Herbicide tolerance, pyraflufen-ethyl” value is “++ (‘++’=10-99 fold higher tolerance)”. For the same molecule, in test [2] (setting [4]), the “Herbicide tolerance, acifluorfen” value was “+ (‘+’=1-9 fold higher tolerance)”; the “Herbicide tolerance, fomesafen” value was “+ (‘+’=1-9 fold higher tolerance)”; the “Herbicide tolerance, pentoxazone” value is listed as “++ (‘++’=10-99 fold higher tolerance)”; the “Herbicide tolerance, pyraclonil” value was “+ (‘+’=1-9 fold higher tolerance)”. The “Herbicide tolerance, sulfentrazone” value in test [2] (setting [4]) was “++ (‘++’=10-99 fold higher tolerance)”. The “Herbicide tolerance, saflufenacil” value in test [2] (one amino acid mutation, light, relative to wild type at highest concentration (50, 200 μM)) is recorded as “+++ (‘+++’=100-999 fold higher tolerance)”.

B2: I339T: CyPPO17 variant (protein)
chain: B1 chain with I339T, V359F
modifications: Synthetic (Protoporphyrinogen IX oxidase (CyPPO17) of Thermosynechococcus sp. NK55a)
notes: CyPPO17 variant
Consider B2, for which the “Activity (%)” value in test [1] was 48%.

B3: R88A: CyPPO17 variant (protein)
chain: B1 chain with R88A, V359F
modifications: Synthetic (Protoporphyrinogen IX oxidase (CyPPO17) of Thermosynechococcus sp. NK55a)
notes: CyPPO17 variant
For B3, the “Activity (%)” value in test [1] is listed as 70%.

B4: F359T: CyPPO17 variant (protein)
chain: B1 chain with V359T
modifications: Synthetic (Protoporphyrinogen IX oxidase (CyPPO17) of Thermosynechococcus sp. NK55a)
notes: CyPPO17 variant
Take B4: the “Activity (%)” value in test [1] is 56%.

B5: F359M: CyPPO17 variant (protein)
chain: B1 chain with V359M
modifications: Synthetic (Protoporphyrinogen IX oxidase (CyPPO17) of Thermosynechococcus sp. NK55a)
notes: CyPPO17 variant
On to B5, for which the “Activity (%)” value in test [1] was found to be 90%.

B6: F323V: CyPPO17 variant (protein)
chain: B1 chain with F323V, V359F
modifications: Synthetic (Protoporphyrinogen IX oxidase (CyPPO17) of Thermosynechococcus sp. NK55a)
notes: CyPPO17 variant
On to B6, for which the “Activity (%)” value in test [1] worked out at 16%.

B7: F359I: CyPPO17 variant (protein)
chain: B1 chain with V359I
modifications: Synthetic (Protoporphyrinogen IX oxidase (CyPPO17) of Thermosynechococcus sp. NK55a)
notes: CyPPO17 variant
B7: the “Activity (%)” value in test [1] is 92%.

B8: F160A: CyPPO17 variant (protein)
chain: B1 chain with F160A, V359F
modifications: Synthetic (Protoporphyrinogen IX oxidase (CyPPO17) of Thermosynechococcus sp. NK55a)
notes: CyPPO17 variant
B8: in test [1], the “Activity (%)” value came to 63%.

B9: V304M: CyPPO17 variant (protein)
chain: B1 chain with V304M, V359F
modifications: Synthetic (Protoporphyrinogen IX oxidase (CyPPO17) of Thermosynechococcus sp. NK55a)
notes: CyPPO17 variant
With B9, the “Activity (%)” value in test [1] is listed as 82%.

B10: L326T: CyPPO17 variant (protein)
chain: B1 chain with L326T, V359F
modifications: Synthetic (Protoporphyrinogen IX oxidase (CyPPO17) of Thermosynechococcus sp. NK55a)
notes: CyPPO17 variant
On to B10, for which the “Activity (%)” value in test [1] was determined as 96%.

B11: L326T + F359M: CyPPO17 variant (protein)
chain: B1 chain with L326T, V359M
modifications: Synthetic (Protoporphyrinogen IX oxidase (CyPPO17) of Thermosynechococcus sp. NK55a)
notes: CyPPO17 variant
Take B11: the “Activity (%)” value in test [1] is recorded as 74%. In test [2] (two or more amino acid mutations, dark, relative to wild type at highest concentration (50, 200 μM)), the “Herbicide tolerance, tiafenacil” value is reported as “++++ (‘++++’=1,000-9,999 fold higher tolerance)”. In test [2] (two or more amino acid mutations, dark, relative to wild type at highest concentration (100, 200 μM)), the “Herbicide tolerance, flumioxazin” value is “++++ (‘++++’=1,000-9,999 fold higher tolerance)”. Further, in test [2] (two or more amino acid mutations, dark, relative to wild type at highest concentration (200, 400 μM)), the “Herbicide tolerance, sulfentrazone” value was “+++ (‘+++’=100-999 fold higher tolerance)”.
